Reference: patent publication US20100317083A1

Columns and labels:
[1] = target: human IgG3 purified from human plasma (human) (UniProt P01860); assay: cell-based or functional assay
[2] = target: human IgG3 purified from human plasma (human) (UniProt P01860); assay: SPR (BIAcore), IgG3 immobilized, EndoS(E235Q) injected, deglycosylated IgG flow cell as reference

Sequence of UniProt P01860 (P01860 whole entry, form in doubt): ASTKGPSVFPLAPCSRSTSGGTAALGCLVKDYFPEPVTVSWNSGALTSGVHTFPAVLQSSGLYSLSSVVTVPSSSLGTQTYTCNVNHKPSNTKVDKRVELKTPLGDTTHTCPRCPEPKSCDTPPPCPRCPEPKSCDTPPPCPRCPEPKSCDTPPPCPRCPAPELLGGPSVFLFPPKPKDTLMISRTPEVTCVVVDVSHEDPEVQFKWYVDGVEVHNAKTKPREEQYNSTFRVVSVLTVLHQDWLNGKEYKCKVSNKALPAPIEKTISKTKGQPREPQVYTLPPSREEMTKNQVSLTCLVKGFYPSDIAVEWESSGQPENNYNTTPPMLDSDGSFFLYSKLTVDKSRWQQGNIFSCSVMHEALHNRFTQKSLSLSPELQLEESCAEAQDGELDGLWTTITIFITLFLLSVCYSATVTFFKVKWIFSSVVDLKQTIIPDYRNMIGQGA

Substance | SDS-PAGE migration of IgG after incubation with EndoS; LCA lectin blot [1] [kDa] | Kd [2] [nM] | koff [2] [s⁻¹] | kon [2] [M⁻¹ s⁻¹]
EndoS (Endoglycosidase S) from S. pyogenes AP1, recombinant, without GST (from UniProt Q99Y92 37-995) (enzyme) | 3 |  |  | 
EndoS(E235Q), modified EndoS polypeptide lacking IgG endoglycosidase activity (from UniProt Q99Y92 37-995) (enzyme) |  | 83 | 0.0089 | 107000
